Measurements as given in article PMC3722453, “N-truncated amyloid β (Aβ) 4-42 forms stable aggregates and induces acute and long-lasting behavioral deficits” (Acta Neuropathologica, 2013).

Key:
[1] = 1D 1H NMR monomer consumption assay; type: physicochemical; settings: 40 μM peptide, phosphate buffer 20 mM pH 7.2, 25 mM NaCl; after 14 h of incubation at 37 °C; methyl and aromatic 1H signals normalised to DSS
Procedure: 1D ^1H NMR spectra of the five different Aβ peptides were measured at 5 °C at 400 MHz ^1H Larmor frequency. The samples contained 40-μM peptide in phosphate buffer (20 mM, pH 7.2) with 25-mM NaCl. The aggregation propensity of the Aβ variants were then studied through real-time 1D ^1H NMR experiments at 37 °C continued for 14 h at 1-h intervals. The integrated intensity of ^1H peaks at two regions (0.50–1.05 ppm, 6.50–8.00 ppm), after chemical shift using DSS ([…]) as a reference standard, was then calculated. After normalization by the integrated intensity of the DSS peak at 0 ppm, the relative intensity of the peptide ^1H peaks was used to probe peptide monomer consumption during the early phases of peptide aggregation.

[2] = Dynamic light scattering (DLS) of peptide supernatants; type: physicochemical; settings: DLS at 20 °C, 0.2 mg/mL, phosphate buffer 20 mM pH 7.4, 25 mM NaCl; after 24 h at 37 °C without agitation; supernatant after 16,000g 15 min
Procedure: DLS experiments were performed at 20 °C on a DynaPro Titan (Wyatt Technology Corp., CA) instrument with a scattering angle of 90°. The samples were centrifuged at 16,000g for 15 min, and then the supernatant was taken for DLS measurements. The “monomeric” samples were prepared freshly in phosphate buffer (20 mM, pH 7.4) containing 25 mM NaCl at a peptide concentration of 0.2 mg/mL. The aggregated samples were prepared after incubation at 37 °C for 24 h, without further promotion of aggregation by agitation. The size distribution was determined by a constrained regularization method. The reported scattering intensities are from three separate measurements of the same sample.

[3] = Far-UV circular dichroism (CD) spectroscopy; type: physicochemical; settings: 0.2 mg/mL, phosphate buffer 20 mM pH 7.2, 20 °C, monomeric state
Procedure: Samples of 0.2 mg/mL peptide concentration in phosphate buffer (20 mM, pH 7.2) were prepared. The far-UV CD measurements were conducted on a Chirascan CD spectrometer, with a 1-mm path length quartz cell, 1-nm bandwidth and 8-s collection time for each point at 0.5 nm steps between 190 and 260 nm. The buffer spectrum was also measured and subtracted from the spectra of Aβ peptides. The temperature-dependence of secondary structure was studied through far-UV measurements at three different temperatures, 20, 30 and 40 °C. The reversibility of temperature-induced changes was checked with an additional CD spectrum measured after cooling down from 40 to 20 °C. The CD spectrum of the cooled sample was taken after 5 min of equilibration at 20 °C. The 0.2 mg/mL Aβ samples in phosphate buffer (20 mM, pH 7.2) containing 25 mM NaCl were incubated at 37 °C for 3 days with gentle stirring.

[4] = SDS-PAGE Western blot of Aβ peptides (stable aggregates); type: physicochemical; settings: 1 μg peptide, reducing conditions, antiserum 24311; for higher molecular weight oligomers on SDS-PAGE after aging: after 1 and 3 days of aging
Procedure: Lyophilized Aβ peptides were dissolved in 10-mM NaOH at a concentration of 1 mg/mL, aliquoted in 50 μL volumes, flash-frozen in liquid nitrogen and stored at −80 °C until use. For Western blot analysis under reducing conditions, 1 μg peptides were loaded on 4–12 % VarioGels (Anamed), transferred to 0.45 μm nitrocellulose membranes and detected using the primary antiserum 24311 (pan-Aβ, 1:500) or monoclonal antibody 4G8 (Aβ17-24, Signet; 1:500). For Western blotting of mouse brain, whole brain SDS lysates were used. Running and transfer buffers were applied according to the manufacturer. The blots were developed using enhanced chemiluminescence according to the manufacturer (Roth). Horse radish conjugated swine anti-rabbit antibody was used as a secondary antibody (1:3,000, Dianova).

primary cortical neurons = assay: Calcein-AM cell viability assay; type: cell-based, Wistar rat; settings: for effect on cell viability: 24 h incubation with freshly prepared peptide at different concentrations, calcein-AM fluorescence; for toxicity profile compared to vehicle control: ANOVA with Bonferroni multiple comparisons
Procedure: Cortical neurons from embryonic day 16–17 Wistar rat fetuses were prepared as previously described. In brief, dissociated cortical cells were plated at 50,000 cells/well in 48-well plates precoated with 1.5 mg/mL polyornithine (Sigma). Cells were cultured in a chemically defined Dulbecco’s Modified Eagle’s/F12 medium free of serum (Gibco) and supplemented with hormones, proteins and salts. […] At 6 DIV, the medium was removed and cortical neurons were incubated for 24 h with vehicle (cell culture medium) or Aβ peptides (dissolved in cell culture medium) at the indicated concentrations.
Following a 24-h incubation of primary cortical neurons with Aβ peptides, cell viability was determined using a calcein-AM assay (Invitrogen, Molecular Probes). Briefly, cells were washed twice with PBS and incubated to protect from light for 30 min at room temperature in the presence of 2 μM calcein-AM solution prepared in PBS. Cells were then washed twice with PBS and incubated for 15 min at room temperature in PBS containing 1 % Triton X-100 (v/v). The level of calcein fluorescence was monitored by fluorescence emission at 530 nm after exciting at 485 nm, using a Fluostar microplate reader (BMG-Labtechnologies, France).

C57BL/6 J wildtype mice = assay: Y-maze working memory after intracerebroventricular injection of soluble Aβ; type: in vivo, mouse; settings: 50 pmol in 1 μL icv, male C57BL/6 J mice 12-week old, n = 6 per group, Y-maze on day 4, 5-min session
Procedure: Male C57BL/6 J mice (12-week old, Janvier, Le Genest-St-Isle, France; n = 6 per treatment group) were housed five to six per cage with free access to food and water, and were kept in a constant environment (22 ± 2 °C, 50 ± 5 % humidity, 12-h light cycle). Under anesthetization, freshly prepared Aβ peptides (50 pmol in 1 μL; 0.1 M phosphate-buffered saline (pH 7.4)) or vehicle (0.1 M phosphate-buffered saline) were injected into the right ventricle, with stereotaxic coordinates from the bregma (AP −0.22, L −1.0 and D 2.5 in mm). Intracerebroventricular (icv) injections were made using a 10-μl Hamilton microsyringe fitted with a 26-gauge needle. Four days following icv infusion of Aβ peptides, working memory was assessed using the Y-maze test.
Immediate spatial working memory performance in male C57BL/6 J wildtype mice (12-week old, Janvier, Le Genest-St-Isle, France; n = 6 per treatment group) was assessed by recording spontaneous alternation behavior in a Y-maze as described previously. The Y-maze task was carried out on day 4 after soluble Aβ application. The maze was made of opaque plexiglas and each arm was 40-cm long, 16-cm high, 9-cm wide and positioned at equal angles. Mice were placed at the end of one arm and allowed to move freely through the maze during a 5-min session. The series of arm entries were recorded visually and arm entry was considered to be completed when the hind paws of the mouse were completely placed in the arm. Alternation was defined as successive entries into the three arms on overlapping triplet sets. The percentage alternation was calculated as the ratio of actual (total alternations) to possible alternations (defined as the number of arm entries minus two), multiplied by 100.

[5] = Transmission electron microscopy (TEM) of aggregates; type: physicochemical; settings: 0.1 mg/mL, HEPES 25 mM pH 7.4, 50 mM NaCl, 3 days at 37 °C with gentle stirring
Procedure: Peptide samples of 0.1 mg/mL concentration in HEPES buffer (25 mM, pH 7.4, 50 mM NaCl) were incubated at 37 °C with gentle stirring. After 3 days of incubation, samples were diluted, deposited onto carbon-coated copper mesh grids and negatively stained with 2 % (w/v) uranyl acetate. The excess stain was washed away, and the sample grids were allowed to air-dry. The samples were then viewed with a 120-kV transmission electron microscope.

Substance | loss of initial 1H NMR signal intensity (monomer consumption) [1] | hydrodynamic radius of small (main) aggregates [2] | secondary structure by far-UV CD spectrum [3] | higher molecular weight oligomers on SDS-PAGE after aging [4] | species on SDS-PAGE, freshly dissolved peptides [4] | effect on cell viability (primary cortical neurons) | toxicity compared with Aβ4-40 at 5 μM (primary cortical neurons; 24 h incubation, 5 μM, calcein-AM) | toxicity profile compared to vehicle control (primary cortical neurons; 24 h incubation, calcein-AM) | working memory (Y-maze alternation rate) (C57BL/6 J wildtype mice) | aggregate morphology by TEM [5]
Aβ1-42: full-length amyloid β 1-42, purchased from PSL [reference compound] | around 5% | 5–10 nm | unstructured in the monomeric state | higher molecular weight oligomers in addition | monomers and aggregates most likely representing trimer/tetramers | dose-dependent reduction in cell viability | more potent than Aβ4-40 | strongest toxic effect | performed at chance level and showed a significant and robust deficit in working memory | 
Aβ4-40: amyloid β (Aβ) variant, N-truncated, purchased from PSL | around 5% |  | unstructured in the monomeric state | not | monomers, dimers but no other oligomers | dose-dependent reduction in cell viability |  |  | significantly reduced | clumps of fibrillar aggregates
Aβ4-38: amyloid β (Aβ) variant, N-truncated, purchased from PSL | rose slightly in intensity |  | unstructured in the monomeric state | not | monomers, dimers but no other oligomers | dose-dependent reduction in cell viability |  | only toxic at 10 μM | behaved like vehicle controls and learned well | clumps of fibrillar aggregates
